Substitutions are numbered along the chain they refer to. Names may count otherwise.

Data set [1] concerns the molecule itself. Nature of the data set: SEC; light (L) state: 8 or 50 µM protein illuminated 2 min with blue light, column under continuous LED irradiation; Superdex 75, 400 mM NaCl, 20 mM Tris-HCl pH 7.0, 25 ± 1 °C, 0.5 mL/min; monomer to dimer. (In general: Size exclusion chromatography separates by hydrodynamic size, large species first.)
Data set [2] deals with the molecule itself. The experiment in a line: SEC; dark (D) state: 8 or 50 µM protein incubated 20 min at 25 °C in the dark; Superdex 75 column, 400 mM NaCl, 20 mM Tris-HCl pH 7.0, 25 ± 1 °C, 0.5 mL/min; monomer to dimer.
Data set [3] deals with the molecule itself. Nature of the data set: dynamic light scattering (DLS); dark (D) state: 30-60 µM protein, 25 °C, hydrodynamic radius extrapolated to 0 µM protein; monomer to dimer.
Data set [4] deals with the molecule itself. Nature of the data set: dynamic light scattering (DLS); light (L) state: immediately after 1 min of blue light, 30-60 µM protein, 25 °C, hydrodynamic radius extrapolated to 0 µM protein; monomer to dimer.

B1: Photozipper (PZ), N-terminally truncated aureochrome-1 of Vaucheria frigida, wild type (domain or fragment, UniProt A8QW55 113-348, looked up)
chain: GSISSELTEAQKVERRERNREHAKRSRVRKKFLLESLQQSVNELNHENNSLKESIREHLGPRGDSLIAQSSPEADTLLTDNPSKANRILEDPDYSLVKALQMAQQNFVITDASLPDNPIVYASRGFLTLTGYSLDQILGRNCRFLQGPETDPRAVDKIRNAITKGVDTSVCLLNYRQDGTTFWNLFFVAGLRDSKGNIVNYVGVQSKVSEDYAKLLVNEQNIEYKGVRTSNMLRRK
notes: aureochrome-1 of Vaucheria frigida (VfAUREO1), G113-K348 with C162S and C182S, encoded by the synthetic gene opZL; holds the bZIP and LOV domains; in the light (L) state FMN forms a covalent adduct with a conserved cysteine; also called wtPZ; source: recombinant protein
As for B1, the binding result in data set [1] was “binds”.

B2: Photozipper (PZ) V314I mutant (domain or fragment, Vaucheria frigida, UniProt A8QW55 113-348, looked up)
chain: B1 chain with V202I
notes: aureochrome-1 of Vaucheria frigida (VfAUREO1), G113-K348 with C162S and C182S (opZL gene), plus V314I; also called β-sheet mutant
For the protein B2, the “stoichiometry N” value in data set [2] amounted to 2.

B3: Photozipper (PZ) V314A mutant (domain or fragment, Vaucheria frigida, UniProt A8QW55 113-348, looked up)
chain: B1 chain with V202A
notes: aureochrome-1 of Vaucheria frigida (VfAUREO1), G113-K348 with C162S and C182S (opZL gene), plus V314A; also called β-sheet mutant
For the protein B3, the binding result in data set [1] is on record as “binds”.

B4: Photozipper (PZ) L208A mutant (domain or fragment, Vaucheria frigida, UniProt A8QW55 113-348, looked up)
chain: B1 chain with L96A
notes: aureochrome-1 of Vaucheria frigida (VfAUREO1), G113-K348 with C162S and C182S (opZL gene), plus L208A; also called L208L (as printed once); A'α mutant
As to B4, the binding result in data set [2] is reported as “binds”.

B5: Photozipper (PZ) L201A mutant (domain or fragment, Vaucheria frigida, UniProt A8QW55 113-348, looked up)
chain: B1 chain with L89A
notes: aureochrome-1 of Vaucheria frigida (VfAUREO1), G113-K348 with C162S and C182S (opZL gene), plus L201A; also called A'α mutant
B5: the binding result in data set [2] was “binds”.

B6: Photozipper (PZ) L212A mutant (domain or fragment, Vaucheria frigida, UniProt A8QW55 113-348, looked up)
chain: B1 chain with L100A
notes: aureochrome-1 of Vaucheria frigida (VfAUREO1), G113-K348 with C162S and C182S (opZL gene), plus L212A; also called A'α mutant
On to B6, for which the binding result in data set [3] is given as “binds”.

B7: Photozipper (PZ) L201A/L208A/L212A triple mutant (domain or fragment, Vaucheria frigida, UniProt A8QW55 113-348, looked up)
chain: B1 chain with L89A, L96A, L100A
notes: aureochrome-1 of Vaucheria frigida (VfAUREO1), G113-K348 with C162S and C182S (opZL gene), plus L201A, L208A and L212A; also called A'α mutant
For the protein B7, the binding result in data set [2] was “binds”.

B8: Photozipper (PZ) L303A mutant (domain or fragment, Vaucheria frigida, UniProt A8QW55 113-348, looked up)
chain: B1 chain with L191A
notes: aureochrome-1 of Vaucheria frigida (VfAUREO1), G113-K348 with C162S and C182S (opZL gene), plus L303A; also called β-sheet mutant
Turning to B8, the binding result in data set [4] was “binds”.

B9: Photozipper (PZ) Q216A mutant (domain or fragment, Vaucheria frigida, UniProt A8QW55 113-348, looked up)
chain: B1 chain with Q104A
notes: aureochrome-1 of Vaucheria frigida (VfAUREO1), G113-K348 with C162S and C182S (opZL gene), plus Q216A; also called hinge mutant
With B9, in data set [4], the binding result is on record as “binds”.

B10: Photozipper (PZ) N218A mutant (domain or fragment, Vaucheria frigida, UniProt A8QW55 113-348, looked up)
chain: B1 chain with N106A
notes: aureochrome-1 of Vaucheria frigida (VfAUREO1), G113-K348 with C162S and C182S (opZL gene), plus N218A; also called hinge mutant
B10: in data set [4], the binding result is listed as “binds”.

B11: Photozipper (PZ) Q217A mutant (domain or fragment, Vaucheria frigida, UniProt A8QW55 113-348, looked up)
chain: B1 chain with Q105A
notes: aureochrome-1 of Vaucheria frigida (VfAUREO1), G113-K348 with C162S and C182S (opZL gene), plus Q217A; also called hinge mutant
As to B11, the binding result in data set [4] is reported as “binds”.

B12: Photozipper (PZ) F219V mutant (domain or fragment, Vaucheria frigida, UniProt A8QW55 113-348, looked up)
chain: B1 chain with F107V
notes: aureochrome-1 of Vaucheria frigida (VfAUREO1), G113-K348 with C162S and C182S (opZL gene), plus F219V; also called β-sheet mutant
On to B12, for which the “stoichiometry N” value in data set [2] is 2.

B13: Photozipper (PZ) F299V mutant (domain or fragment, Vaucheria frigida, UniProt A8QW55 113-348, looked up)
chain: B1 chain with F187V
notes: aureochrome-1 of Vaucheria frigida (VfAUREO1), G113-K348 with C162S and C182S (opZL gene), plus F299V; also called β-sheet mutant
In the case of B13, in data set [4], the binding result is recorded as “binds”.

B14: Photozipper (PZ) V316A mutant (domain or fragment, Vaucheria frigida, UniProt A8QW55 113-348, looked up)
chain: B1 chain with V204A
notes: aureochrome-1 of Vaucheria frigida (VfAUREO1), G113-K348 with C162S and C182S (opZL gene), plus V316A; also called β-sheet mutant
B14: the binding result in data set [2] is recorded as “binds”.

As usually defined, the stoichiometry N is the number of molecules, sites or subunits per partner or assembly.
